Assay results from publication PMC2776994 (2009).

Tests used:
[1] = target: T1, PcrA helicase (UniProt P56255 1-724); experiment: not stated in material
T1 sequence: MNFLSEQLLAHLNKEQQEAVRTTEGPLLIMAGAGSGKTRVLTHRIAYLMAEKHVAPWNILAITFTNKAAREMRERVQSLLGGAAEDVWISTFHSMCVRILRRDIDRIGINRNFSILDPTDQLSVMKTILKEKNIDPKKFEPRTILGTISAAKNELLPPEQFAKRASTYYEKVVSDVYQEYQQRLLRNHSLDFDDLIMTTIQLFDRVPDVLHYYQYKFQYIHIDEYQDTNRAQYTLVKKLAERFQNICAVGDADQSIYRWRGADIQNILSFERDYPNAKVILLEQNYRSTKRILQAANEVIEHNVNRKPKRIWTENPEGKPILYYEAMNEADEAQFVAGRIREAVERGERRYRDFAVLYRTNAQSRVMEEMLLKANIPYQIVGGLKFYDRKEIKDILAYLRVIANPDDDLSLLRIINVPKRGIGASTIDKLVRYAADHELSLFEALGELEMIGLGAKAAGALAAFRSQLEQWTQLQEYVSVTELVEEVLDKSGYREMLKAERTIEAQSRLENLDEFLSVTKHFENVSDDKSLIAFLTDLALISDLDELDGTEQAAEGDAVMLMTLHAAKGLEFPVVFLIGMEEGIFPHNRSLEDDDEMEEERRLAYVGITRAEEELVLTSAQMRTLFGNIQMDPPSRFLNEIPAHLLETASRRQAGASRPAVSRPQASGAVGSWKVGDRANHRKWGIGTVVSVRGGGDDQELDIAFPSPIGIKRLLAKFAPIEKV

[2] = target: T2, RepD (Staphylococcus aureus, UniProt P03065); experiment: fluorescence anisotropy
T2 chain: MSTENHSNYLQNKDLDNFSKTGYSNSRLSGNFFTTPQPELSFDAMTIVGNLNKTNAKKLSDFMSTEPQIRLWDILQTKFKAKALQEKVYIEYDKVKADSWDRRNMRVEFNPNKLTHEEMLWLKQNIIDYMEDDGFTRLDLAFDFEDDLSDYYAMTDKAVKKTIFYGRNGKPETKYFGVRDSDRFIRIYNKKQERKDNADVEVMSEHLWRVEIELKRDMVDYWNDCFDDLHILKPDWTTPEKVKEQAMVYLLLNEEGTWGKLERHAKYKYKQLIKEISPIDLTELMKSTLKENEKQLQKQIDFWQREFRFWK

TTTTTTTTTT (ssDNA) [dT10]
Kd [1]: 240 nM

B1: PcrA (protein)
chain: MNFLSEQLLAHLNKEQQEAVRTTEGPLLIMAGAGSGKTRVLTHRIAYLMAEKHVAPWNILAITFTNKAAREMRERVQSLLGGAAEDVWISTFHSMCVRILRRDIDRIGINRNFSILDPTDQLSVMKTILKEKNIDPKKFEPRTILGTISAAKNELLPPEQFAKRASTYYEKVVSDVYQEYQQRLLRNHSLDFDDLIMTTIQLFDRVPDVLHYYQYKFQYIHIDEYQDTNRAQYTLVKKLAERFQNICAVGDADQSIYRWRGADIQNILSFERDYPNAKVILLEQNYRSTKRILQAANEVIEHNVNRKPKRIWTENPEGKPILYYEAMNEADEAQFVAGRIREAVERGERRYRDFAVLYRTNAQSRVMEEMLLKANIPYQIVGGLKFYDRKEIKDILAYLRVIANPDDDLSLLRIINVPKRGIGASTIDKLVRYAADHELSLFEALGELEMIGLGAKAAGALAAFRSQLEQWTQLQEYVSVTELVEEVLDKSGYREMLKAERTIEAQSRLENLDEFLSVTKHFENVSDDKSLIAFLTDLALISDLDELDGTEQAAEGDAVMLMTLHAAKGLEFPVVFLIGMEEGIFPHNRSLEDDDEMEEERRLAYVGITRAEEELVLTSAQMRTLFGNIQMDPPSRFLNEIPAHLLETASRRQAGASRPAVSRPQASGAVGSWKVGDRANHRKWGIGTVVSVRGGGDDQELDIAFPSPIGIKRLLAKFAPIEKV
modifications: DNA junction
Kd [2]: 22 nM
